Test results taken from PMC8292550, “Molecular characterization of direct interactions between MPP1 and flotillins” (Scientific Reports, 2021).

T1: full length recombinant MPP1 (human, UniProt Q00013 1-466)
T1 construct: MPP1 (p55), human erythroid, full length; also called p55; MPP1(p55)
T1 sequence (looked up): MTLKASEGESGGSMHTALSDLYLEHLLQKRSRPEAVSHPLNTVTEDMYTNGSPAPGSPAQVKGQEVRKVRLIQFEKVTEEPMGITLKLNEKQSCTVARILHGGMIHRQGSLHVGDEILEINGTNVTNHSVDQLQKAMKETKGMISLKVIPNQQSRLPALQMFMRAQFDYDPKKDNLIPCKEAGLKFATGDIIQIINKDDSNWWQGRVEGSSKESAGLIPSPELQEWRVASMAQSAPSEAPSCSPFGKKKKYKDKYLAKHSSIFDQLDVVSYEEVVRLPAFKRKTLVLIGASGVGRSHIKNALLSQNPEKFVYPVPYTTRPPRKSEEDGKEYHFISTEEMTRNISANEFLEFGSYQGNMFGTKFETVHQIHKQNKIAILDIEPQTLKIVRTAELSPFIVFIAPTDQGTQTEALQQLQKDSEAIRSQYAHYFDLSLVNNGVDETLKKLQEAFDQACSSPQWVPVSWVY

B1: MPP1-Mut4 (residues 231–466) (domain or fragment, human, UniProt Q00013 231-466, looked up)
chain: MAQSAPSEAPSCSPFGKKKKYKDKYLAKHSSIFDQLDVVSYEEVVRLPAFKRKTLVLIGASGVGRSHIKNALLSQNPEKFVYPVPYTTRPPRKSEEDGKEYHFISTEEMTRNISANEFLEFGSYQGNMFGTKFETVHQIHKQNKIAILDIEPQTLKIVRTAELSPFIVFIAPTDQGTQTEALQQLQKDSEAIRSQYAHYFDLSLVNNGVDETLKKLQEAFDQACSSPQWVPVSWVY
notes: MPP1 (p55), human, residues 231-466; A FLAG form (p3XFLAG-CMV-10) was expressed in HEL cells for the functional tests only
B2: recombinant His-tagged flotillin 1 (natural protein, UniProt O75955-1 1-427, looked up)
chain: MFFTCGPNEAMVVSGFCRSPPVMVAGGRVFVLPCIQQIQRISLNTLTLNVKSEKVYTRHGVPISVTGIAQVKIQGQNKEMLAAACQMFLGKTEAEIAHIALETLEGHQRAIMAHMTVEEIYKDRQKFSEQVFKVASSDLVNMGISVVSYTLKDIHDDQDYLHSLGKARTAQVQKDARIGEAEAKRDAGIREAKAKQEKVSAQYLSEIEMAKAQRDYELKKAAYDIEVNTRRAQADLAYQLQVAKTKQQIEEQRVQVQVVERAQQVAVQEQEIARREKELEARVRKPAEAERYKLERLAEAEKSQLIMQAEAEAASVRMRGEAEAFAIGARARAEAEQMAKKAEAFQLYQEAAQLDMLLEKLPQVAEEISGPLTSANKITLVSSGSGTMGAAKVTGEVLDILTRLPESVERLTGVSISQVNHKPLRTA
notes: flotillin 1; the discussion speaks of bacterially expressed proteins; also called FL1
B3: recombinant His-tagged flotillin 2 (natural protein, UniProt Q14254 1-428, looked up)
chain: MGNCHTVGPNEALVVSGGCCGSDYKQYVFGGWAWAWWCISDTQRISLEIMTLQPRCEDVETAEGVALTVTGVAQVKIMTEKELLAVACEQFLGKNVQDIKNVVLQTLEGHLRSILGTLTVEQIYQDRDQFAKLVREVAAPDVGRMGIEILSFTIKDVYDKVDYLSSLGKTQTAVVQRDADIGVAEAERDAGIREAECKKEMLDVKFMADTKIADSKRAFELQKSAFSEEVNIKTAEAQLAYELQGAREQQKIRQEEIEIEVVQRKKQIAVEAQEILRTDKELIATVRRPAEAEAHRIQQIAEGEKVKQVLLAQAEAEKIRKIGEAEAAVIEAMGKAEAERMKLKAEAYQKYGDAAKMALVLEALPQIAAKIAAPLTKVDEIVVLSGDNSKVTSEVNRLLAELPASVHALTGVDLSKIPLIKKATGVQV
notes: flotillin 2; also called FL2
B4: endogenous MPP1 (HEL cells) (natural protein)
chain: T1 sequence (looked up)
B5: MPP1-Mut3 (residues 211–292) (domain or fragment, human, UniProt Q00013 211-292, looked up)
chain: SKESAGLIPSPELQEWRVASMAQSAPSEAPSCSPFGKKKKYKDKYLAKHSSIFDQLDVVSYEEVVRLPAFKRKTLVLIGASG
notes: MPP1 (p55), human, residues 211-292
B6: MPP1-Mut2 (residues 151–237) (domain or fragment, human, UniProt Q00013 151-237, looked up)
chain: NQQSRLPALQMFMRAQFDYDPKKDNLIPCKEAGLKFATGDIIQIINKDDSNWWQGRVEGSSKESAGLIPSPELQEWRVASMAQSAPS
notes: MPP1 (p55), human, residues 151-237

Tests used:
[1] = target: B2; experiment: SPR; His-tagged flotillin 1 or 2 captured on a Ni-NTA sensor chip (about 4000 RU), BIAcore T200; untagged MPP1 or its truncated mutants as analytes (at least five concentrations, 50-2000 nM), association 360 s, dissociation 600 s; HBS-T; global fit, 1:1 Langmuir model with mass transport step; conditions: both partners purified
[2] = target: B3; experiment: as above; conditions: both partners purified
[3] = target: T1, full length recombinant MPP1; experiment: as above; conditions: both partners purified
[4] = target: flotillins (endogenous, HEL cells)
[5] = target: flotillins (endogenous, HEL cells); remark: listed apart in the source
[6] = target: B3; experiment: SPR; His-tagged flotillin 1 or 2 captured on a Ni-NTA sensor chip (about 4000 RU), BIAcore T200; untagged MPP1 or its truncated mutants as analytes (at least five concentrations, 50-2000 nM), association 360 s, dissociation 600 s; HBS-T; global fit, 1:1 Langmuir model with mass transport step; conditions: both partners purified; remark: listed apart in the source

Kd [1] [nM] | koff [1] [s⁻¹] | kon [1] [M⁻¹ s⁻¹] | Kd [2] [nM] | koff [2] [s⁻¹] | kon [2] [M⁻¹ s⁻¹] | Kd [3] [nM] | koff [3] [s⁻¹] | kon [3] [M⁻¹ s⁻¹] | reduction of the pERK1/2 level after insulin stimulation in HEL cells transfected with MPP1-Mut4 compared to FLAG control [4] [%] | fluorescence lifetime of di-4-ANEPPDHQ (FLIM) in the plasma membrane of HEL cells transfected with MPP1-Mut4-FLAG (~ 3.83 ns) compared to FLAG control (~ 3.98 ns) [5] [ns] | Kd [6] [nM] | Binder
39.2 | 0.000319 | 8130 | 50.2 | 0.000281 | 5600 |  |  |  |  |  |  | B1
 |  |  |  |  |  | 22.8 | 0.00103 | 45000 |  |  |  | B2
 |  |  |  |  |  | 31 | 0.00128 | 41300 |  |  |  | B3
 |  |  |  |  |  |  |  |  | 46 | 0.15 |  | B4
137 | 0.000515 | 3750 | 199 | 0.000828 | 4170 |  |  |  |  |  |  | B5
702 | 0.00118 | 1680 | 982 | 0.0016 | 1630 |  |  |  |  |  | 686 | B6
